According to patent US20260151494A1 (ARO BIOTHERAPEUTICS, published 2026):
Residue numbers refer to the chain shown, from its start.

B1: CD71-binding FN3 domain SEQ ID NO 380 (designed binder)
chain: MLPAPKNLVVSRVTEDSARLSWTAPDAAFDSFFIGYLEPQPPGEAIGLFVPGSERSYDLTGLKPGTEYNVTIQGVKGGFPSMPLSAIFTT
B2: CD71-binding FN3 domain SEQ ID NO 357 (designed binder)
chain: B1 chain with M82D, S85V, I87Y
B3: CD71-binding FN3 domain SEQ ID NO 387 (designed binder)
chain: B1 chain with G47H, F49V, M82D, S85Y, I87W
B4: CD71-binding FN3 domain SEQ ID NO 355 (designed binder)
chain: B1 chain with G47H, F49Y, M82H, S85Y, I87D
B5: CD71-binding FN3 domain SEQ ID NO 364 (designed binder)
chain: B1 chain with K6N, G47H, M82G, S85H, I87T
B6: CD71-binding FN3 domain SEQ ID NO 346 (designed binder)
chain: B1 chain with G47S, M82D, S85N, I87T, T89N
B7: CD71-binding FN3 domain SEQ ID NO 389 (designed binder)
chain: B1 chain with G47H, F49L, F88V
B8: CD71-binding FN3 domain SEQ ID NO 369 (designed binder)
chain: B1 chain with G47V, F49W, M82H, S85V, I87K, F88S
B9: CD71-binding FN3 domain SEQ ID NO 349 (designed binder)
chain: B1 chain with G47E, F49Y, M82E, S85I, I87H
B10: CD71-binding FN3 domain SEQ ID NO 375 (designed binder)
chain: B1 chain with G47D, F49T
B11: CD71-binding FN3 domain SEQ ID NO 393 (designed binder)
chain: B1 chain with M82L, S85Q, I87H
B12: CD71-binding FN3 domain SEQ ID NO 366 (designed binder)
chain: B1 chain with G47D, F49W, M82N, S85K, I87Q
B13: CD71-binding FN3 domain SEQ ID NO 392 (designed binder)
chain: B1 chain with G47H, F49G, M82L, S85V, I87T
B14: CD71-binding FN3 domain SEQ ID NO 363 (designed binder)
chain: B1 chain with G47D, F49W, M82L
B15: CD71-binding FN3 domain SEQ ID NO 350 (designed binder)
chain: B1 chain with G47S, S85V, I87Q
B16: CD71-binding FN3 domain SEQ ID NO 368 (designed binder)
chain: B1 chain with G47T, F49T, M82G, S85I, I87S
B17: CD71-binding FN3 domain SEQ ID NO 361 (designed binder)
chain: B1 chain with G47Q, M82I, I87L
B18: CD71-binding FN3 domain SEQ ID NO 360 (designed binder)
chain: B1 chain with G47S, F49Y, M82H, S85L, I87V
B19: CD71-binding FN3 domain SEQ ID NO 353 (designed binder)
chain: B1 chain with M82N, S85E, I87R
B20: CD71-binding FN3 domain SEQ ID NO 382 (designed binder)
chain: B1 chain with G47E, F49Y, M82D, S85E, I87D
B21: CD71-binding FN3 domain SEQ ID NO 356 (designed binder)
chain: B1 chain with V13I, G47T, F49L, G52A, M82H, S85Q, I87Q
B22: CD71-binding FN3 domain SEQ ID NO 383 (designed binder)
chain: B1 chain with G47D, F49W, M82L, S85D, I87V
B23: CD71-binding FN3 domain SEQ ID NO 347 (designed binder)
chain: B1 chain with M82E, S85K, I87A
B24: CD71-binding FN3 domain SEQ ID NO 376 (designed binder)
chain: B1 chain with G47A, F49L, M82N, S85E, I87K
B25: CD71-binding FN3 domain SEQ ID NO 354 (designed binder)
chain: B1 chain with G47Q, F49W, M82L, S85V, I87T
B26: CD71-binding FN3 domain SEQ ID NO 377 (designed binder)
chain: B1 chain with G47Q, F49W, M82T, S85Q, I87L
B27: CD71-binding FN3 domain SEQ ID NO 391 (designed binder)
chain: B1 chain with V9I, G47S, F49Y, M82D, S85Q
B28: CD71-binding FN3 domain SEQ ID NO 378 (designed binder)
chain: B1 chain with G47D, F49W, M82T, S85I, I87T, F88V
B29: CD71-binding FN3 domain SEQ ID NO 351 (designed binder)
chain: B1 chain with G47T, F49A, M82N, S85L, I87A
B30: CD71-binding FN3 domain SEQ ID NO 365 (designed binder)
chain: B1 chain with G47V, F49W, M82H, S85V, I87K
B31: CD71-binding FN3 domain SEQ ID NO 385 (designed binder)
chain: B1 chain with G47D, F49Y, M82H, S85Q, I87H
B32: CD71-binding FN3 domain SEQ ID NO 372 (designed binder)
chain: B1 chain with G47N, F49L, M82L, S85L, I87E
B33: CD71-binding FN3 domain SEQ ID NO 373 (designed binder)
chain: B1 chain with G47S, M82D, S85V, I87S

Legend:
[1] = molecular target: T1, human apical domain of CD71 (human, UniProt P02786 189-383, limits assumed); assay: primary ELISA; also: test concentration or dose not given here
T1 construct: domain: apical domain
T1 sequence (P02786 189-383 limits assumed): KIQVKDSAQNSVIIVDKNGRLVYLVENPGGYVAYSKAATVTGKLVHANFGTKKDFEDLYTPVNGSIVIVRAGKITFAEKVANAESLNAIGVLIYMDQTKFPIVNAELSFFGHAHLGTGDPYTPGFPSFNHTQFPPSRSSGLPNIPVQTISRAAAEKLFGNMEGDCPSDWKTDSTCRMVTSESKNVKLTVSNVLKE

[2] = molecular target: T2, human CD71 extracellular domain (human, UniProt P02786 89-760); assay: primary ELISA; also: test concentration or dose not given here
T2 construct: also called hCD71; CD71-ECD
T2 sequence (P02786 89-760): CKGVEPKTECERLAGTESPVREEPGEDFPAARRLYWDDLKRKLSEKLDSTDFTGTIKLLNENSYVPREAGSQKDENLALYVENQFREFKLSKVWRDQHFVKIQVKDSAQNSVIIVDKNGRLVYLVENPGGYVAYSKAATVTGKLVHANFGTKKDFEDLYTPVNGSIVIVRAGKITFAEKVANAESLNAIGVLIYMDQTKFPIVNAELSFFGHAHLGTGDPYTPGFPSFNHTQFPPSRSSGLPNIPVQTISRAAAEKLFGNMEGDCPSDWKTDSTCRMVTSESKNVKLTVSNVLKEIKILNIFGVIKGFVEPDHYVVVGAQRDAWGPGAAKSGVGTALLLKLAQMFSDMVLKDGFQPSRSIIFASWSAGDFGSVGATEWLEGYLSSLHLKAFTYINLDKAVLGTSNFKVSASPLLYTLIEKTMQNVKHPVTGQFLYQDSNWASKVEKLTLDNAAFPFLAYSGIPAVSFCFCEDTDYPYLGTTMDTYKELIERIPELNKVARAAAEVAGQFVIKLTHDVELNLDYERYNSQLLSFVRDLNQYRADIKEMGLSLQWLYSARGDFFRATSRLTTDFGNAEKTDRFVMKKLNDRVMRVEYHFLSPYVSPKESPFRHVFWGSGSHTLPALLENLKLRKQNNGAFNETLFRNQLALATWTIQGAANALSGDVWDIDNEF

[3] = molecular target: T1, human apical domain of CD71; assay: primary ELISA; signal over HSA control; as to RLU: test concentration or dose not given here
[4] = molecular target: T2, human CD71 extracellular domain; assay: primary ELISA; signal over HSA control; as to RLU: test concentration or dose not given here

Row | Binder | RLU [1] [RLU] | RLU [2] [RLU] | Apical domain:HSA [3] [ratio] | hCD71:HSA [4] [ratio]
1 | B1 | 6.5e+06 | 5.32e+06 | 25 | 21
2 | B2 | 6.34e+06 | 5.62e+06 | 18 | 16
3 | B3 | 3.88e+06 | 1.79e+06 | 441 | 203
4 | B4 | 5.91e+06 | 3.58e+06 | 424 | 257
5 | B5 | 6.5e+06 | 5.83e+06 | 67 | 60
6 | B6 | 6.82e+06 | 5e+06 | 83 | 61
7 | B7 | 6.19e+06 | 5.82e+06 | 129 | 121
8 | B8 | 3.66e+06 | 3.82e+06 | 165 | 172
9 | B9 | 6.87e+06 | 6.37e+06 | 23 | 22
10 | B10 | 2.09e+06 | 2.82e+06 | 139 | 187
11 | B11 | 6.09e+06 | 4.39e+06 | 58 | 42
12 | B12 | 3.37e+06 | 2.29e+06 | 313 | 213
13 | B13 | 3.9e+06 | 4.77e+06 | 194 | 237
14 | B14 | 4.91e+06 | 4.18e+06 | 320 | 273
15 | B15 | 6.7e+06 | 5.96e+06 | 143 | 127
16 | B16 | 6.23e+06 | 5.53e+06 | 246 | 218
17 | B17 | 5.01e+06 | 3.08e+06 | 342 | 210

Row | Binder | RLU [1] [RLU] | RLU [2] [RLU] | Apical domain:HSA [3] [ratio] | hCD71:HSA [4] [ratio]
18 | B18 | 5.37e+06 | 5.78e+06 | 144 | 155
19 | B19 | 6.87e+06 | 4.54e+06 | 80 | 53
20 | B20 | 2.55e+06 | 2.01e+06 | 203 | 160
21 | B21 | 6.37e+06 | 3.92e+06 | 337 | 207
22 | B22 | 4.33e+06 | 1.85e+06 | 220 | 94
23 | B23 | 5.95e+06 | 4.1e+06 | 168 | 116
24 | B24 | 6.47e+06 | 5.96e+06 | 167 | 153
25 | B25 | 5.25e+06 | 5.75e+06 | 142 | 155
26 | B26 | 3.43e+06 | 1.57e+06 | 274 | 125
27 | B27 | 4.19e+06 | 2.78e+06 | 163 | 108
28 | B28 | 6.12e+06 | 6.12e+06 | 76 | 76
29 | B29 | 2.87e+06 | 2.67e+06 | 345 | 322
30 | B30 | 6.7e+06 | 6.85e+06 | 65 | 67
31 | B31 | 5.91e+06 | 5.74e+06 | 146 | 142
32 | B32 | 4.63e+06 | 2.8e+06 | 205 | 124
33 | B33 | 5.73e+06 | 4.86e+06 | 115 | 98
